The results in this text go back to US20110086797.

The target of the data set is elongation factor G (EF-G) of B. subtilis, P80868.
Chain of elongation factor G (EF-G) of B. subtilis, P80868 (P80868 2-692): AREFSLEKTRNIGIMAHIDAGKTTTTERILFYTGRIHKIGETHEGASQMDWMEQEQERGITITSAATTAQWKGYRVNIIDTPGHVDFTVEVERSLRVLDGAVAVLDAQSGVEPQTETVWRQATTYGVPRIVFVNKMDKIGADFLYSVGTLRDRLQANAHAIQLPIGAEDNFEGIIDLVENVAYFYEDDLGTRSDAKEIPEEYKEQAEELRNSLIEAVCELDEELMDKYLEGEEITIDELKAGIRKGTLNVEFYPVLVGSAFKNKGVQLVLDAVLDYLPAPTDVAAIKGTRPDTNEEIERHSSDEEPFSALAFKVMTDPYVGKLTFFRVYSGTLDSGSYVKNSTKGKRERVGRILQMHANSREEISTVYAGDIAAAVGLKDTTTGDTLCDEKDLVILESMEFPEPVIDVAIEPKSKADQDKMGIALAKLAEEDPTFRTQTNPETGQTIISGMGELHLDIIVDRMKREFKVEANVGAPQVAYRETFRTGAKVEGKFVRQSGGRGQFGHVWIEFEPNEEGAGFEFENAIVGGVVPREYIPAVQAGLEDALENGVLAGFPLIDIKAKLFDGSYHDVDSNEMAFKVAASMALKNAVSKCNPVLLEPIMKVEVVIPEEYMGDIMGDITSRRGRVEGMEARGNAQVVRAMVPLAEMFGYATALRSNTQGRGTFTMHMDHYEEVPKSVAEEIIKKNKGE

B1: PrkC Ser/Thr kinase of B. subtilis (protein)
chain: MLIGKRISGRYQILRVIGGGGMANVYLAEDIILDREVAIKILRFDYANDNEFIRRFRREAQSASSLDHPNIVSIYDLGEEDDIYYIVMEYVEGMTLKEYITANGPLHPKEALNIMEQIVSAIAHAHQNQIVHRDIKPHNILIDHMGNIKVTDFGIATALSSTTITHTNSVLGSVHYLSPEQARGGLATKKSDIYALGIVLFELLTGRIPFDGESAVSIALKHLQAETPSAKRWNPSVPQSVENIILKATAKDPFHRYETAEDMEADIKTAFDADRLNEKRFTIQEDEEMTKAIPIIKDEELAKAAGEKEAEVTTAQENKTKKNGKRKKWPWVLLTICLVFITAGILAVTVFPSLFMPKDVKIPDVSGMEYEKAAGLLEKEGLQVDSEVLEISDEKIEEGLMVKTDPKADTTVKEGATVTLYKSTGKAKTEIGDVTGQTVDQAKKALKDQGFNHVTVNEVNDEKNAGTVIDQNPSAGTELVPSEDQVKLTVSIGPEDITLRDLKTYSKEAASGYLEDNGLKLVEKEAYSDDVPEGQVVKQKPAAGTAVKPGNEVEVTFSLGPEKKPAKTVKEKVKIPYEPENEGDELQVQIAVDDADHSISDTYEEFKIKEPTERTIELKIEPGQKGYYQVMVNNKVVSYKTIEYPKDE
As for B1, the “EF-G phosphorylation (immunoprecipitation with anti-EF-G, western blot with anti-phosphothreonine antibody)” value is “EF-G (as identified by probing the same fractions with the α-EF-G) phosphorylation increased following exposure to cell free supernatant (FIG. 24D). In contrast, no change in phosphorylation was observed in spores lacking PrkC”.
